Source: paper PMC4051647, “Two Adjacent and Similar TetR Family Transcriptional Regulator Genes, SAV577 and SAV576, Co-Regulate Avermectin Production in Streptomyces avermitilis”

B1: probe 2 (dsDNA)
DNA 1: CCCAGGTCTGCCGATTGAGTTTCCATACGTCGTATGGTACTAC
DNA 2: GTAGTACCATACGACGTATGGAAACTCAATCGGCAGACCTGGG
B2: probe 6 (dsDNA)
DNA 1: AGTCGCCATACGCTGTACGGTACCAGCGCCCGCGGCACTGCGG
DNA 2: CCGCAGTGCCGCGGGCGCTGGTACCGTACAGCGTATGGCGACT

The molecules below were run against T1, His6-SAV577 (Streptomyces avermitilis ATCC31267?) (UniProt Q82QD3) (assay: EMSA). Conditions: EMSA: Roche DIG Gel Shift kit binding buffer, 1 ug poly[d(I-C)] per 20 ul, 25 C 30 min, 5% native PAGE 0.5x TBE; footprinting: 20 mM HEPES pH 7.6, 10 mM ….
T1 sequence: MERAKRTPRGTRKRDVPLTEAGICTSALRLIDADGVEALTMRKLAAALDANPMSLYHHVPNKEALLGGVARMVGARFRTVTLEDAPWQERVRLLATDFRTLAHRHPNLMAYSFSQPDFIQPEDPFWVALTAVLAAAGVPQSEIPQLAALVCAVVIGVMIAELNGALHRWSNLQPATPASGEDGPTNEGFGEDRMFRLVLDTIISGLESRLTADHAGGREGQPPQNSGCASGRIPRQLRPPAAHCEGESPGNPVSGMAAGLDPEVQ
“ATATGCCCTGCCGAGGAGACCCTGGCGAACCCGCCTTGCCCGCTCTCGCGGACTGATACCGGCCTGATCGAGCGCGGCATGGAGACGTACGGGCGCCGCCGCGAGGCGGCACACGCGCCTGCTTCTCCGGCGCTGCCGTCAGTCGCCGACGCGCATGGGTGCAGACCCGACCTCCGCGATGCGTACTGGCGGGCAGGGGGATTGGCTGCTCACCGGGATGTAGCCGCGGCCGCCGTCGCGGATCGTGGGTGTCCTCC (double strand) [probe 4]” was tested, and the binding was “no binding”.
“GAAACTCAATCGGCAGACCTGGGGTCGAGAAACAGGAACGTTTCGGCCCATCAGGGACGGCGTCGCTCACGCAGCGGGGTCGCATCAGGATCAGGCGCTGCCGAACGCTCTCCCGGCTGGAGGAGGCGAGGGGAGACCGGTCGCCGCCAGCCGGCGGCTCGACCGGGCCACCGGTGGGTGCGCCCCGGGGAGGACACCCACGATCCGCGACGGCGGCCGCGGCTACATCCCGGTGAGCAGCCAATCCCCCTGCCCGCCAGTACGCATCGCGGAGGT (double strand) [probe 3]” was tested, and the binding was “no binding”.
With “GAAGGCATACAGCGTATGGAAACGGGGCGCTGCCGTACCGGCGCCCCGTCACACCGAATGGCGCCCTGCCCGCCTTTCCCCTTGGAGGAGCCAGCCAT (double strand) [probe 1]” the binding was “binds more weakly”.
In the case of “GCTCTCGGAATTGTTCGTTCCCTCGCACTACACGTTCGAGATCGGAACGTGAAGACCAGCACGCTCCAGCCCGTTCGGATGCCGTACGTAGTCCGCCATGGCCAAGGGAATGAGCCCCACTCAGGCAGCGCCCTCGTACTCGTCCACGACCAGATGCTTGGACAGCAGCGCCTGAACCGCGTCCGGCGGAAAGTATCAGTGGACGAACG (double strand) [probe 577p]”, the binding is reported as “no binding”.
In the case of “GGTATTCCATTCGGTGTTGCAGCACGCGACCCACTGCGCATCCCACTCGTGAATTGTGGACCGCCATCCGGGGCACGGATGTCTCCAGGAAGGAACTCCTTCACCCTCGCGAACACCACCTCAGAATCCCACGATCATCAGTTAATCATCAAAGTCAGCGACCTTGACACTACCCCGCCCACCAGGGCAAATTCATAACA (double strand) [probe 7]”, the binding is reported as “no binding”.

What follows are molecules tested against T2, His6-SAV577 (UniProt Q82QD3 1-265) (assay: EMSA; 0.3 nM probe; EMSA: Roche DIG Gel Shift kit binding buffer, 1 ug poly[d(I-C)] per 20 ul, 25 C 30 min, 5% native PAGE 0.5x TBE; footprinting: 20 mM HEPES pH 7.6, 10 mM (NH4)2SO4, 1 mM DTT, 0.2% Tween-20, 30 mM KCl, 25 C binding). Conditions: protein: recombinant; tags: N-terminal His6; chain copies: 2; label: DIG 3'-end; blunt.
T2 sequence: T1 sequence
B1: binds.
B2: binds.
